T1: mouse OX40 receptor, cell-expressed (DO11.10-mOX40) (mouse, UniProt P47741 20-272)
T1 sequence: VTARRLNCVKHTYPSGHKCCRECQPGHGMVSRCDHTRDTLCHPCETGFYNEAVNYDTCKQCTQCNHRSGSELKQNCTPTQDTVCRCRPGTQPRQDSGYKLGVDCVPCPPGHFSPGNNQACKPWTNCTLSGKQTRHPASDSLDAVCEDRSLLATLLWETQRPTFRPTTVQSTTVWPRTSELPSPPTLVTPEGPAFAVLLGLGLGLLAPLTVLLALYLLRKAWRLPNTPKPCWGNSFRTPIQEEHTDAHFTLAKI

T2: mouse CD137 (mouse, UniProt P20334 24-187, limits assumed)
T2 construct: Amine-coupled to a CM5 chip; also called 4-1BB
T2 sequence (looked up): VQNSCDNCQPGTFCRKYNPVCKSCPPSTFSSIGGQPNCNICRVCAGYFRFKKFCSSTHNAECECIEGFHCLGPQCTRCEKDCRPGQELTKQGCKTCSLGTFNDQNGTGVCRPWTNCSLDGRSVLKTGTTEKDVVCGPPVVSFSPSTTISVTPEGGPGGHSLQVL

T3: mouse NGFR (mouse, UniProt Q9Z0W1 32-254, limits assumed)
T3 construct: Amine-coupled to a CM5 chip
T3 sequence (looked up): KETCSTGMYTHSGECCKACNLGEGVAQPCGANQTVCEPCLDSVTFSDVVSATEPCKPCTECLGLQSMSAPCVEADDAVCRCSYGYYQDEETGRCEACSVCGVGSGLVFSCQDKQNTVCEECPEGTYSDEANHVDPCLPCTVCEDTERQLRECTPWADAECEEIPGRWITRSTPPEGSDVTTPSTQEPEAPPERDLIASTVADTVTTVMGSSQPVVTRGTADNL

T4: mouse TNFRI (mouse, UniProt P25118 22-212, limits assumed)
T4 construct: Amine-coupled to a CM5 chip
T4 sequence (looked up): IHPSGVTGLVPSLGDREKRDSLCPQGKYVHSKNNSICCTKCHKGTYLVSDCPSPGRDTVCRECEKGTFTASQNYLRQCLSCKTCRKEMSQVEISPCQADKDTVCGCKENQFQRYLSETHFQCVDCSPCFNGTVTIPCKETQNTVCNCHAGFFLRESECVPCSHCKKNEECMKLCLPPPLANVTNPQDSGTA

T5: mouse CD40 (mouse, UniProt P27512 24-193, limits assumed)
T5 construct: Amine-coupled to a CM5 chip
T5 sequence (looked up): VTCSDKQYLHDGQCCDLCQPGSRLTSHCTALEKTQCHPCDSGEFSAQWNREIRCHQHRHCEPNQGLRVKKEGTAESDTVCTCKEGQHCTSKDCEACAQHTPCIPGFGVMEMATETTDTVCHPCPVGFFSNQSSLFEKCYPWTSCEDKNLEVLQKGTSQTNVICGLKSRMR

T6: mouse TNFRII (mouse, UniProt P25119 23-258, limits assumed)
T6 construct: Amine-coupled to a CM5 chip
T6 sequence (looked up): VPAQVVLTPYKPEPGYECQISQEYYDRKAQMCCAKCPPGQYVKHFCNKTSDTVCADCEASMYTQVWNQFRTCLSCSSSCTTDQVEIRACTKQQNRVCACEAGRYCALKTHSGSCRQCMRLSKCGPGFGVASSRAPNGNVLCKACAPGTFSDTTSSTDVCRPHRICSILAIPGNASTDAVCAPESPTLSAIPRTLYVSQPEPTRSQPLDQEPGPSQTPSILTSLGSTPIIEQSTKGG

B1: antibody OX86 (Biolegend cat no 119408) (antibody, V domains shown)
VH: QVQLKESGPGLVQPSQTLSLTCTVSGFSLTGYNLHWVRQPPGKGLEWMGRMRYDGDTYYNSVLKSRLSISRDTSKNQVFLKMNSLQTDDTAIYYCTRDGRGDSFDYWGQGVMVTVSS
VL: DIVMTQGALPNPVPSGESASITCRSSQSLVYKDGQTYLNWFLQRPGQSPQLLTYWMSTRASGVSDRFSGSGSGTYFTLKISRVRAEDAGVYYCQQVREYPFTFGSGTKLEIK
B2: FS20m-232-91AA/HEL D1.3 (bispecific antibody, human IgG1, kappa, L234A L235A, V domains shown)
VH: QVQLQESGPGLVRPSQTLSLTCTVSGSTFSGYGVNWVRQPPGRGLEWIGMIWGDGNTDYNSALKSRVTMLVDTSKNQFSLRLSSVTAADTAVYYCARERDYRLDYWGQGSLVTVSS
VL: DIQMTQSPASLSASVGETVTITCRASGNIHNYLAWYQQKQGKSPQLLVYNAKTLADGVPSRFSGSGSGTQYSLKINSLQPEDFGSYYCQHFWSTPRTFGGGTKLEIKR
notes: Human IgG1 with anti-HEL D1.3 Fab and LALA; also called FS20m-232-91 in mock (HEL D1.3 LALA) mAb^2 format; FS20m-232-91/HelD1.3 mock mAb^2 with LALA mutation

Key:
[1] = target: T1, mouse OX40 receptor, cell-expressed …; experiment: flow cytometry, labelled antibody on DO11.10-mOX40 cells
mouse CD137 = target: T2, mouse CD137; experiment: SPR (Biacore T200), receptor on CM5 chip
mouse NGFR = target: T3, mouse NGFR; experiment: SPR (Biacore T200), receptor on CM5 chip
mouse TNFRI = target: T4, mouse TNFRI; experiment: SPR (Biacore T200), receptor on CM5 chip
mouse CD40 = target: T5, mouse CD40; experiment: SPR (Biacore T200), receptor on CM5 chip
mouse TNFRII = target: T6, mouse TNFRII; experiment: SPR (Biacore T200), receptor on CM5 chip

Binder | fluorescence over non-transduced cells [1] | binding result (mouse CD137) | binding result (mouse NGFR) | binding result (mouse TNFRI) | binding result (mouse CD40) | binding result (mouse TNFRII)
B1 | ≥ 10 fold | – | – | – | – | –
B2 | – | no binding (tested: 1 µM) | no binding (tested: 1 µM) | no binding (tested: 1 µM) | no binding (tested: 1 µM) | no binding (tested: 1 µM)

Reference: patent US20250361312A1 (INVOX PHARMA, published 2025)
